B1: LexA-Cdk7 (other, UniProt P0A7C2 1-202, looked up)
chain: MKALTARQQEVFDLIRDHISQTGMPPTRAEIAQRLGFRSPNAAEEHLKALARKGVIEIVSGASRGIRLLQEEEEGLPLVGRVAAGEPLLAQQHIEGHYQVDPSLFKPNADFLLRVSGMSMKDIGIMDGDLLAVHKTQDVRNGQVVVARIDDEVTVKRLKKQGNKVELLPENSEFKPIVVDLRQQSFTIEGLAVGVIRNGDWLMALDVKSRAKRYEKLDFLGEGQFATVYKARDKNTNQIVAIKKIKLGHRSEAKDGINRTALREIKLLQELSHPNIIGLLDAFGHKSNISLVFDFMETDLEVIIKDNSLVLTPSHIKAYMLMTLQGLEYLHQHWILHRDLKPNNLLLDENGVLKLADFGLAKSFGSPNRAYTHQVVTRWYRAPELLFGARMYGVGVDMWAVGCILAELLLRVPFLPGDSDLDQLTRIFETLGTPTEEQWPDMCSLPDYVTFKSFPGIPLHHIFSAAGDDLLDLIQGLFLFNPCARITATQALKMKYFSNRPGPTPGCQLPRPNCPVETLKEQSNPALAIKRKRTEALEQGGLPKKLIF
notes: Fusion protein expressed in yeast L40 from the ADH constitutive promoter; also called Lex-Cdk7

Tests used:
LexA-Cdk7 [1] = molecular target: B1; experiment: yeast three-hybrid (L40), LexA-Cdk7 with Cyclin H expressed; growth test and β-galactosidase test
LexA-Cdk7 [2] = molecular target: B1; experiment: cell-based or functional assay
VP16 fused with XPD = molecular target: T1, VP16 fused with XPD (UniProt P18074 1-760); experiment: yeast three-hybrid (L40), LexA-Cdk7 with Cyclin H expressed; growth test and β-galactosidase test
T1 construct: One of the five TFIIH core sub-units put into pVP16 as specificity controls

VP16 fused with XPB = molecular target: T2, VP16 fused with XPB (UniProt P19447 1-782); experiment: as above
T2 construct: One of the five TFIIH core sub-units put into pVP16 as specificity controls
T2 sequence (P19447 whole entry, the tested form may be a part): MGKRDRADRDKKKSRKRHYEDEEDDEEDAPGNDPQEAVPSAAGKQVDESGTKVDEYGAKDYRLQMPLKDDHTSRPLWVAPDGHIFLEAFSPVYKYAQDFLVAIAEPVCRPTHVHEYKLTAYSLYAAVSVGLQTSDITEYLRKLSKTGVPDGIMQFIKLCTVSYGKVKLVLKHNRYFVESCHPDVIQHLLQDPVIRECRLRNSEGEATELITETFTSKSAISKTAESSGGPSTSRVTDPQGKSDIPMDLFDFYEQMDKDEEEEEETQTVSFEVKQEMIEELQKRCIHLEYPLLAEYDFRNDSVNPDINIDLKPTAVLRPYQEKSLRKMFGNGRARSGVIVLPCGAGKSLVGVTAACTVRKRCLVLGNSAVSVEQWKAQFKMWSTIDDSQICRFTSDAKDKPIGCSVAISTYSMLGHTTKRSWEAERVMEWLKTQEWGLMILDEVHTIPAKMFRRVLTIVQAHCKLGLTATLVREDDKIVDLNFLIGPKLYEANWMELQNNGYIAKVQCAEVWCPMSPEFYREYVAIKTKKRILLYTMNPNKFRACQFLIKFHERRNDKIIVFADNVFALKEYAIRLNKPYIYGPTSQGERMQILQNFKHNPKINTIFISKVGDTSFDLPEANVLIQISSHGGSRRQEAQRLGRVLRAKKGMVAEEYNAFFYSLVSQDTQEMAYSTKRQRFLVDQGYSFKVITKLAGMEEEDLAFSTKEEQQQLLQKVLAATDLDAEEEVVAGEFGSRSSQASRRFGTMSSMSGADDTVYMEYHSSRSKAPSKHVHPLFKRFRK

Row | Binder | binding result (LexA-Cdk7 [1]) | also measured
1 | VP16 fused with p34 (other, One of the five TFIIH core sub-units put into pVP16 as specificity controls) MVSDEDELNLLVIVVDANPIWWGKQALKESQFTLSKCIDAVMVLGNSHLFMNRSNKLAVIASHIQESRFLYPGKNGRLGDFFGDPGNPPEFNPSGSKDGKYELLTSANEVIVEEIKDLMTKSDIKGQHTETLLAGSLAKALCYIHRMNKEVKDNQEMKSRILVIKAAEDSALQYMNFMNVIFAAQKQNILIDACVLDSDSGLLQQACDITGGLYLKVPQMPSLLQYLLWVFLPDQDQRSQLILPPPVHVDYRAACFCHRNLIEIGYVCSVCLSIFCNFSPICTTCETAFKISLPPVLKAKKKKLKVSA | no binding | 
2 | VP16 fused with p44 (other, One of the five TFIIH core sub-units put into pVP16 as specificity controls) MDEEPERTKRWEGGYERTWEILKEDESGSLKATIEDILFKAKRKRVFEHHGQVRLGMMRHLYVVVDGSRTMEDQDLKPNRLTCTLKLLEYFVEEYFDQNPISQIGIIVTKSKRAEKLTELSGNPRKHITSLKKAVDMTCHGEPSLYNSLSIAMQTLKHMPGHTSREVLIIFSSLTTCDPSNIYDLIKTLKAAKIRVSVIGLSAEVRVCTVLARETGGTYHVILDESHYKELLTHHVSPPPASSSSECSLIRMGFPQHTIASLSDQDAKPSFSMAHLDGNTEPGLTLGGYFCPQCRAKYCELPVECKICGLTLVSAPHLARSYHHLFPLDAFQEIPLEEYNGERFCYGCQGELKDQHVYVCAVCQNVFCVDCDVFVHDSLHCCPGCIHKIPAPSGV | no binding | 
3 | VP16-MAT1 (other) STAPPTDVSLGDELHLDGEDVAMAHADALDDFDLDMLGDGDSPGPGFTPHDSAPYGALDMADFEFEQMFTDALGIDEYGGMDDQGCPRCKTTKYRNPSLKLMVNVCGHTLCESCVDLLFVRGAGNCPECGTPLRKSNFRVQLFEDPTVDKEVEIRKKVLKIYNKREEDFPSLREYNDFLEEVEEIVFNLTNNVDLDNTKKKMEIYQKENKDVIQKNKLKLTREQEELEEALEVERQENEQRRLFIQKEEQLQQILKRKNKQAFLDELESSDLPVALLLAQHKDRSTQLEMQLEKPKPVKPVTFSTGIKMGQHISLAPIHKLEEALYEYQPLQIETYGPHVPELEMLGRLGYLNHVRAASPQDLAGGYTSSLACHRALQDAFSGLFWQPS |  | inhibition of the β-Gal activity by methionine (repression of Cyclin H) (LexA-Cdk7 [2]): > 6 fold
4 | VP16 alone (not containing any fused protein) (other, Negative control) STAPPTDVSLGDELHLDGEDVAMAHADALDDFDLDMLGDGDSPGPGFTPHDSAPYGALDMADFEFEQMFTDALGIDEYGG | no binding | 
5 | B1 |  | binding result (VP16 fused with XPD): no binding; binding result (VP16 fused with XPB): no binding
